This assay deals with T1, factor VIIIa (Homo sapiens, UniProt P00451).
T1 construct: to yield factor VIIIa, a heterotrimer composed of A1, A2 and A3-C1-C2 subunits; cleaved by thrombin at R372-S373, R740-S741, and R1689-S1690 to yield factor VIIIa
T1 sequence (P00451 20-391): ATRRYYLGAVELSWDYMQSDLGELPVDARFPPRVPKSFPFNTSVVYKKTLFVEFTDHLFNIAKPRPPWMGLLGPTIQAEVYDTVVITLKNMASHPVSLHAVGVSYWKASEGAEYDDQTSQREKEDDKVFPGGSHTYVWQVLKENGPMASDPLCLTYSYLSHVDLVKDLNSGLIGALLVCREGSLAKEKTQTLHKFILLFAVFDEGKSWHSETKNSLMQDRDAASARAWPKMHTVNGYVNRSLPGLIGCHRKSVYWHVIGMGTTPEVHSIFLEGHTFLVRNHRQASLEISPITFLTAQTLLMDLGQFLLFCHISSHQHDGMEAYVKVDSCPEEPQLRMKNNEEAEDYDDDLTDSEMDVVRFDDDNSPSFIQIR
T1 sequence (P00451 392-759): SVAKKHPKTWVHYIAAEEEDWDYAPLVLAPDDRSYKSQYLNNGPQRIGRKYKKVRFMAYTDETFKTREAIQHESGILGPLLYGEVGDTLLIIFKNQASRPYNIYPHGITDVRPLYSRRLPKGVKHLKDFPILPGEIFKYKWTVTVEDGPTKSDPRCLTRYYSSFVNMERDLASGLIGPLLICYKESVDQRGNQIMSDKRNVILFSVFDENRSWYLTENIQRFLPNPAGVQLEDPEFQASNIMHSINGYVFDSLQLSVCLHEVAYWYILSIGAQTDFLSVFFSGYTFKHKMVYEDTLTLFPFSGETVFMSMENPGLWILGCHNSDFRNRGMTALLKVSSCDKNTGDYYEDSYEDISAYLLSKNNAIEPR
T1 sequence (P00451 1709-2351): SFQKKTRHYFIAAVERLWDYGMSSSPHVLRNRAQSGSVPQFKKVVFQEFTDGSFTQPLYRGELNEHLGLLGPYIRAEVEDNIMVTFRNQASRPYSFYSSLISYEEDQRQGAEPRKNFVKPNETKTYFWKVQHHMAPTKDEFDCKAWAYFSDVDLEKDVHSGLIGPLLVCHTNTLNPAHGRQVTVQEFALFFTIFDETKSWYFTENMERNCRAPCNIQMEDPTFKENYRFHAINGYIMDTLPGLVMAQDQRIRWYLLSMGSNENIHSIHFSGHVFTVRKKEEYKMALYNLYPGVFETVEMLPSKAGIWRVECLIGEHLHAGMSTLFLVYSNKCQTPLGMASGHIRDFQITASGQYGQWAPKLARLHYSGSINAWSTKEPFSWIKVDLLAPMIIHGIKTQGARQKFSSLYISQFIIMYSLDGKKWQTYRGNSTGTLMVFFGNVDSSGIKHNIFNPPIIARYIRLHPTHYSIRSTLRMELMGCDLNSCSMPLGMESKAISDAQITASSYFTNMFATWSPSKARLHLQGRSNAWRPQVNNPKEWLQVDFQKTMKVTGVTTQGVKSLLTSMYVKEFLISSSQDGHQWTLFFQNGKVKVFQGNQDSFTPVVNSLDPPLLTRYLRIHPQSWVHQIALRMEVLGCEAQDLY
In words: EC50 for factor IXa-factor VIIIa interaction in the tenase complex. The format is biochemical. Particulars: 0.07 nM factor VIIIa, 480 nM factor X, 10 μM PL, 5 mM CaCl2; read-out: EC50 (functional Kd) for factor IXa-factor VIIIa interaction. How it is done:
Determination of the EC50 of for Factor IXa-Factor VIIIa Interaction in the Tenase Complex
These experiments are performed with normal factor IXa in the presence of phospholipid (PL) vesicles. 50-μl reaction mixtures in TBS-BSA (50 mM Tris-HCl, pH 7.4, 1 mg/ml BSA) with 5 mM CaCl2 and 10 μM PL are prepared containing a fixed concentration of factor VIIIa (0.07 nM) and various concentrations of factor IXa (0-20 nM) at a constant concentration of factor X (480 nM), which is added last to initiate the reaction. The reaction is carried out at 37° C. for 30-120 seconds at which time 1 μl of 0.5 M EDTA is added to stop further generation of factor Xa. A 40 μl aliquot is added to a 0.1-mL quartz cuvette containing a synthetic substrate S-2222 in 75 μl of TBS-BSA, pH 7.4. The final concentration of S-2222 is 100 μM. The p-nitroaniline release is measured continuously (ΔA405/min) for up to 20 minutes (Mathur et al., 1997). Factor Xa generated is calculated from a standard curve constructed using factor Xa prepared by insolubilized Russell's viper venom. In control experiments, at each factor X concentration used, the rate of factor Xa generation is also measured at various concentrations of normal factor IXa in the absence of factor VIIIa; these control values are ˜5% of the experimental values in the presence of factor VIIIa and are subtracted before analysis of the data. […]

Results on one substance are retold here after US20040126856A1, “Factor ixa: factor Vllla interaction and methods therefor” (priority 2004, published 2004).

Turning to “normal factor IXa: normal factor IXa used in the tenase complex of Example 2”, the EC50 was roughly 0.4 nM.
